From patent publication US11351270B2, “Junctophilin-2 fragments and uses therefor” (University of Iowa Research Foundation, priority 2016, dated 2022)

Columns and labels:
[1] = test system: MEF2C-mediated transcriptional activity; assay: MEF2 luciferase reporter assay; format: cell-based; settings: 293 cells co-transfected with MEF2C and PMEF2-firefly, relative to PSV40-Renilla
Protocol: Firefly and Renilla reporter plasmids and JP2NT variants were co-transfected into HEK293 cells. The protein of the cells was harvested 48 hours after transfection. Promega dual luciferase system was used to evaluate the luciferase activity.
To examine whether JP2NT regulates MEF2-mediated transcription, a luciferase reporter system with firefly cDNA driven by the desmin enhancer-derived MEF2 binding site (PMEF2-firefly) (Naya et al., 1999) was used.

MEF2C = target: T1, MEF2C (Homo sapiens, UniProt Q06413); assay: Co-IP of Myc-tagged MEF2C and HA-tagged JP2NT in 293 cells; format: binding
T1 construct: expressed in transfected cells; host or cells: 293 cells
Source text: The MEF2 family, master regulators of hypertrophic genes in cardiomyocytes, binds to the A/T enriched consensus sequence (C/TTA(A/T)4TA G/A), which shares the same core sequence with TATA box. Thus, it was hypothesized that JP2NT directly interacts with MEF2 binding sites.

[2] = test system: cultured adult murine cardiomyocytes; assay: RT-qPCR in cultured cardiomyocytes; format: cell-based, mouse; settings: compared with Ad-Empty infected cells
Protocol: RNA of cultured cardiomyocytes was extracted using RNAeasy (Qiagene). Myocardium RNA was extracted using Trizol. Total RNA was treated with DNASE-I to eliminate genomic DNA and then cleaned using RNA cleanup Kit (Qiagene).
Superscript II were used for Reverse Transcription of mRNA. A QUANT STUDIO 3 real-time PCR machine was used to run qPCR. The primers used in RT-PCR were: […]

JP2-KD cardiomyocytes = assay: Confocal Ca2+ imaging in JP2-KD cardiomyocytes after adenoviral expression; format: cell-based, mouse; settings: 1-Hz field stimulation
Source text: Specifically, conditional shJP2 mice (provided by Dr. Wehrens) (van Oort et al., 2011) were crossed with mice carrying the cardiac-specific α-myosin heavy chain promoter upstream of Cre (% MHC-Cre, also FVB-Tg(Myh6-cre)2182Mds/J, The Jackson Laboratory). The shJP2 mice were maintained on a C57BL/6 background for more than 10 generations. The αMHC-Cre mice were maintained on an FVB background. PCR was used to genotype the offspring. The near complete depletion of JP2 protein in JP2-KD (αMHC-Cre X shJP2) hearts has been reported recently (Chen et al., 2013). JP2-KD mice were sacrificed at 2 months of age for isolation and culture of ventricular cardiomyocytes as described below.
Genecarrior-1 (Epoch Lab) was used to transfect plasmids into HEK293T cells. Isolation and culture of cardiomyocytes were performed as described previously (Guo et al., 2012). […] Ca^2+ Imaging experiments were performed 40 hours after adenoviral infection.
Cells were loaded with Rhod-2AM at 37° C. for 20 minutes, followed by washing with Tyrode's solution at room temperature for 15 minutes before Ca^2+ imaging. Confocal images were acquired using a ×63, 1.3 numerical aperture oil immersion objective mounted on a Zeiss LSM 510 confocal microscope. Confocal line scanning was used to record Ca^2+ signals. Steady-state Ca^2+ transients were recorded in Tyrode's solution containing 1.8 mM Ca^2+ under field stimulation of 1 Hz. At least five steady-state transients for each cell were analyzed and averaged to represent Ca^2+ signals of the cell. Ca^2+ imaging data were analyzed by using a home-complied software, CaTeasy, which is coded in MATLAB 2013a (Mathworks). Briefly, the program normalizes Ca^2+ transient images on a column-by-column basis (512 columns/image). The characteristic parameters of normalized transients were detected automatically. The firing time of every scanning pixel was detected column by column on the basis of the maximum local variability of pixel intensity. The profile of the point-to-point firing time was indicated by a red line overlapping on the Ca^2+ image. Index of desynchronization, defined by the mean absolute deviation of firing time of each scanning pixel (with every 8 pixels binned), was used to evaluate the dyssynchrony of Ca^2+ transients. This automated software for calcium transient analysis is available upon request.

cardiac hypertrophy = assay: Angiotensin-induced cardiac hypertrophy in JP2NT OE mice; format: in vivo, mouse
Protocol: A transgenic mouse line with cardiac specific overexpression of an exogenous protein sequence corresponding to JP2NT was prepared. JP2NT (JP2(1-565)) transgenic mice were generated based on a tet-off system. The Flag and HA tagged JP2NT cDNA was cloned downstream of tet-operated alpha-MHC promoter, enabling the cardiac specific and conditional expression of JP2NT (FIG. 9A). The plasmid (αMHC-JP2NT) was delivered by pronuclear injection into fertilized eggs to make transgenic founders. The transgenic mouse lines were backcrossed to C57 background for 9 generations. αMHC-JP2NT mice have been crossed with αMHC-tTA mice to generate double transgenic αMHC-tTA-JP2NT mice (noted as JP2NT OE mice). This allows for inducible and cardiac-specific expression of JP2NT, in which tTA binds to tet-operon and activates transcription of JP2NT. Thus, the expression and nuclear localization of JP2NT in transgenic mice have been confirmed.

T1 sequence (Q06413 whole entry, species assumed): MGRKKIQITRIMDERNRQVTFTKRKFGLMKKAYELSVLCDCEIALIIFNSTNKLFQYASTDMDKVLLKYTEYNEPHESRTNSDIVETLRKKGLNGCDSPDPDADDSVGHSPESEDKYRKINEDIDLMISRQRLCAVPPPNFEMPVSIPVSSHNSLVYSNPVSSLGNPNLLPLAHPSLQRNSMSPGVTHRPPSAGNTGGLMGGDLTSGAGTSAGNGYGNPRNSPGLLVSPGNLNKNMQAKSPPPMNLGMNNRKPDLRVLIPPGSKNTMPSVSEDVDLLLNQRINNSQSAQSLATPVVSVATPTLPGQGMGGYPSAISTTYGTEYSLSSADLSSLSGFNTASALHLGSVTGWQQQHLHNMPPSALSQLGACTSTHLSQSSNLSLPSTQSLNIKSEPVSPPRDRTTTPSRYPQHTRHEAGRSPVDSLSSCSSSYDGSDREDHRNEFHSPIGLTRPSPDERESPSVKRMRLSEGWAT

B1: JP2NT: shorter form of Junctophilin-2 including the first 565 amino acids of N-terminus of JP2 (protein, UniProt Q9BR39 1-565, looked up, fragment)
chain: MSGGRFDFDDGGAYCGGWEGGKAHGHGLCTGPKGQGEYSGSWNFGFEVAGVYTWPSGNTFEGYWSQGKRHGLGIETKGRWLYKGEWTHGFKGRYGIRQSSSSGAKYEGTWNNGLQDGYGTETYADGGTYQGQFTNGMRHGYGVRQSVPYGMAVVVRSPLRTSLSSLRSEHSNGTVAPDSPASPASDGPALPSPAIPRGGFALSLLANAEAAARAPKGGGLFQRGALLGKLRRAESRTSVGSQRSRVSFLKSDLSSGASDAASTASLGEAAEGADEAAPFEADIDATTTETYMGEWKNDKRSGFGVSERSSGLRYEGEWLDNLRHGYGCTTLPDGHREEGKYRHNVLVKDTKRRMLQLKSNKVRQKVEHSVEGAQRAAAIARQKAEIAASRTSHAKAKAEAAEQAALAANQESNIARTLARELAPDFYQPGPEYQKRRLLQEILENSESLLEPPDRGAGAAGLPQPPRESPQLHERETPRPEGGSPSPAGTPPQPKRPRPGVSKDGLLSPGAWNGEPSGEGSRSVTPSEGAGRRSPARPATERMAIEALQAPPAPSREPEVALYQG
modifications: GST or adenoviral forms
notes: shorter form of Junctophilin-2 including the first 565 amino acids of N-terminus of JP2
[1]
  MEF2-responsive luciferase signal: attenuated the MEF2-responsive signal in a dose-dependent manner
MEF2C
  interaction with MEF2C: interaction
[2]
  cardiac hypertrophy markers ANP and BNP (mRNA): not altered
  mRNA levels of KLF4, KLF6, Myc, TGFβR1, NFKBIA, FOXO1, PI3KR1 et al: significantly decreased
JP2-KD cardiomyocytes
  restoration of Ca2+ transients: failed to restore
Cardiac hypertrophy
  Angiotensin-li induced cardiac hypertrophy: resistant
